These results are taken from patent US20240400618A1.
Note: test concentration or dose not given here.

The first experiment deals with pxEBN4-ACE2-AAA-His (human) (UniProt Q9BYF1).
“pxENBCP17-FLS-CT-His-SBP (from UniProt P0DTC2 15-1213) (ligand)”: the Response, shift in Wavelength (nm) turned out to be 0.0382 nm.

Regarding “pxENBCP19-FLS-CT-His-StrepTagII (from UniProt P0DTC2 15-1213) (ligand)”, the Response, shift in Wavelength (nm) stood at 0.042 nm.

With “pxENBCP20-FLS-CT-His-TST (from UniProt P0DTC2 15-1213) (ligand)”, the Response, shift in Wavelength (nm) was 0.0719 nm.

A further experiment has the same target. This is another data set of the same source.
With “pxEBNCP14-tPa-FLS-CT-His (from UniProt P0DTC2 16-1213) (ligand)”, the Response, shift in Wavelength (nm) came to 0.529 nm.

As for “pxEBNCP15-mIgGHC-FLS-CT-His (from UniProt P0DTC2 16-1213) (ligand)”, the Response, shift in Wavelength (nm) was 0.492 nm.

“pxEBNCP16-IL2-FLS-CT-His (from UniProt P0DTC2 16-1213) (ligand)”: the Response, shift in Wavelength (nm) stood at 0.145 nm.

For the substance “pxENB1-His-TEV-FLS-TN (from UniProt P0DTC2 14-1213) (ligand)”, the Response, shift in Wavelength (nm) was found to be 0.0257 nm.

As to “pxENB2-His-TEV-FLS-CT (from UniProt P0DTC2 14-1213) (ligand)”, the Response, shift in Wavelength (nm) was 0.344 nm.

Turning to “pxENB5-his-TEV-FLS (from UniProt P0DTC2 14-1213) (ligand)”, the Response, shift in Wavelength (nm) came out at 0.185 nm.

Regarding “pxENB8-FLS-TN-His (from UniProt P0DTC2 15-1213) (ligand)”, the Response, shift in Wavelength (nm) turned out to be 0.0591 nm.

As to “pxENB9-FLS-CT-His (from UniProt P0DTC2 15-1213) (ligand)”, the Response, shift in Wavelength (nm) stood at 0.555 nm.

Turning to “pxENB12-FLS-His (from UniProt P0DTC2 15-1213) (ligand)”, the Response, shift in Wavelength (nm) was 0.127 nm.

For the substance “pxENB14-His-TEV-RBD (from UniProt P0DTC2 319-541) (ligand)”, the Response, shift in Wavelength (nm) was 0.304 nm.

Turning to “pxENB17-RBD-His (from UniProt P0DTC2 319-541) (ligand)”, the Response, shift in Wavelength (nm) is 0.301 nm.

On to “pxENBEP17_TPA_Nuc(1-182)_Spike (15-1216, GAAS, PP)_10xHis (ligand)”, for which the Response, shift in Wavelength (nm) worked out at 0.232 nm.

As for “pxENBEP18_Spike_Nuc(1-182)_10xHis (ligand)”, the Response, shift in Wavelength (nm) turned out to be 0.277 nm.
